Publication PMC12416549 (2024)

T1: TNFR1 (Homo sapiens, UniProt P19438)
T1 chain: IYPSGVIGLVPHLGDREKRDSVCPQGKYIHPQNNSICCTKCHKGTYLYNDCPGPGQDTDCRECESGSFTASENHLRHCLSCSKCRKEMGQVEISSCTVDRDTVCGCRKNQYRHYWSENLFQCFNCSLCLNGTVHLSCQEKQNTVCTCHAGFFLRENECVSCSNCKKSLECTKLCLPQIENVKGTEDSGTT


Target: T1, TNFR1
Test: yeast display SC50

Binder	apparent Kd (screen) [nM]
A80T (designed binder) MTLQELLREEALRRAEAEAFRYALELLAEKFPEQKEYLLDLAEEIESQIRSLSGVDVEDVRKFLDKEWAWVKELLAEHPTELAEVEAARAARLAELRAEVEAKVAA	0.718
E5N (designed binder) MTLQNLLREEALRRAEAEAFRYALELLAEKFPEQKEYLLDLAEEIESQIRSLSGVDVEDVRKFLDKEWAWVKELLAEHPAELAEVEAARAARLAELRAEVEAKVAA	0.446
A17I (designed binder) MTLQELLREEALRRAEIEAFRYALELLAEKFPEQKEYLLDLAEEIESQIRSLSGVDVEDVRKFLDKEWAWVKELLAEHPAELAEVEAARAARLAELRAEVEAKVAA	0.229
L75A (designed binder) MTLQELLREEALRRAEAEAFRYALELLAEKFPEQKEYLLDLAEEIESQIRSLSGVDVEDVRKFLDKEWAWVKELAAEHPAELAEVEAARAARLAELRAEVEAKVAA	0.653
E101R (designed binder) MTLQELLREEALRRAEAEAFRYALELLAEKFPEQKEYLLDLAEEIESQIRSLSGVDVEDVRKFLDKEWAWVKELLAEHPAELAEVEAARAARLAELRAEVRAKVAA	0.49
K30D (designed binder) MTLQELLREEALRRAEAEAFRYALELLAEDFPEQKEYLLDLAEEIESQIRSLSGVDVEDVRKFLDKEWAWVKELLAEHPAELAEVEAARAARLAELRAEVEAKVAA	1.27
Y22V (designed binder) MTLQELLREEALRRAEAEAFRVALELLAEKFPEQKEYLLDLAEEIESQIRSLSGVDVEDVRKFLDKEWAWVKELLAEHPAELAEVEAARAARLAELRAEVEAKVAA	0.79
Q34I (designed binder) MTLQELLREEALRRAEAEAFRYALELLAEKFPEIKEYLLDLAEEIESQIRSLSGVDVEDVRKFLDKEWAWVKELLAEHPAELAEVEAARAARLAELRAEVEAKVAA	0.593
S51V (designed binder) MTLQELLREEALRRAEAEAFRYALELLAEKFPEQKEYLLDLAEEIESQIRVLSGVDVEDVRKFLDKEWAWVKELLAEHPAELAEVEAARAARLAELRAEVEAKVAA	2.05
A106I (designed binder) MTLQELLREEALRRAEAEAFRYALELLAEKFPEQKEYLLDLAEEIESQIRSLSGVDVEDVRKFLDKEWAWVKELLAEHPAELAEVEAARAARLAELRAEVEAKVAI	0.593
E36F (designed binder) MTLQELLREEALRRAEAEAFRYALELLAEKFPEQKFYLLDLAEEIESQIRSLSGVDVEDVRKFLDKEWAWVKELLAEHPAELAEVEAARAARLAELRAEVEAKVAA	0.539
K35F (designed binder) MTLQELLREEALRRAEAEAFRYALELLAEKFPEQFEYLLDLAEEIESQIRSLSGVDVEDVRKFLDKEWAWVKELLAEHPAELAEVEAARAARLAELRAEVEAKVAA	0.539
Y22D (designed binder) MTLQELLREEALRRAEAEAFRDALELLAEKFPEQKEYLLDLAEEIESQIRSLSGVDVEDVRKFLDKEWAWVKELLAEHPAELAEVEAARAARLAELRAEVEAKVAA	0.446
R92N (designed binder) MTLQELLREEALRRAEAEAFRYALELLAEKFPEQKEYLLDLAEEIESQIRSLSGVDVEDVRKFLDKEWAWVKELLAEHPAELAEVEAARAANLAELRAEVEAKVAA	0.718
L75M (designed binder) MTLQELLREEALRRAEAEAFRYALELLAEKFPEQKEYLLDLAEEIESQIRSLSGVDVEDVRKFLDKEWAWVKELMAEHPAELAEVEAARAARLAELRAEVEAKVAA	1.54
V60Q (designed binder) MTLQELLREEALRRAEAEAFRYALELLAEKFPEQKEYLLDLAEEIESQIRSLSGVDVEDQRKFLDKEWAWVKELLAEHPAELAEVEAARAARLAELRAEVEAKVAA	0.718
R89F (designed binder) MTLQELLREEALRRAEAEAFRYALELLAEKFPEQKEYLLDLAEEIESQIRSLSGVDVEDVRKFLDKEWAWVKELLAEHPAELAEVEAAFAARLAELRAEVEAKVAA	1.05
V55H (designed binder) MTLQELLREEALRRAEAEAFRYALELLAEKFPEQKEYLLDLAEEIESQIRSLSGHDVEDVRKFLDKEWAWVKELLAEHPAELAEVEAARAARLAELRAEVEAKVAA	1.16
P32E (designed binder) MTLQELLREEALRRAEAEAFRYALELLAEKFEEQKEYLLDLAEEIESQIRSLSGVDVEDVRKFLDKEWAWVKELLAEHPAELAEVEAARAARLAELRAEVEAKVAA	0.49
A83F (designed binder) MTLQELLREEALRRAEAEAFRYALELLAEKFPEQKEYLLDLAEEIESQIRSLSGVDVEDVRKFLDKEWAWVKELLAEHPAELFEVEAARAARLAELRAEVEAKVAA	0.593
K62N (designed binder) MTLQELLREEALRRAEAEAFRYALELLAEKFPEQKEYLLDLAEEIESQIRSLSGVDVEDVRNFLDKEWAWVKELLAEHPAELAEVEAARAARLAELRAEVEAKVAA	0.49

Results, then the binder that gave them:

apparent Kd (screen) [nM]	Binder
0.869	V85W (designed binder) MTLQELLREEALRRAEAEAFRYALELLAEKFPEQKEYLLDLAEEIESQIRSLSGVDVEDVRKFLDKEWAWVKELLAEHPAELAEWEAARAARLAELRAEVEAKVAA
0.956	D56G (designed binder) MTLQELLREEALRRAEAEAFRYALELLAEKFPEQKEYLLDLAEEIESQIRSLSGVGVEDVRKFLDKEWAWVKELLAEHPAELAEVEAARAARLAELRAEVEAKVAA
4.39	L38R (designed binder) MTLQELLREEALRRAEAEAFRYALELLAEKFPEQKEYRLDLAEEIESQIRSLSGVDVEDVRKFLDKEWAWVKELLAEHPAELAEVEAARAARLAELRAEVEAKVAA
1.27	L41D (designed binder) MTLQELLREEALRRAEAEAFRYALELLAEKFPEQKEYLLDDAEEIESQIRSLSGVDVEDVRKFLDKEWAWVKELLAEHPAELAEVEAARAARLAELRAEVEAKVAA
0.593	K62D (designed binder) MTLQELLREEALRRAEAEAFRYALELLAEKFPEQKEYLLDLAEEIESQIRSLSGVDVEDVRDFLDKEWAWVKELLAEHPAELAEVEAARAARLAELRAEVEAKVAA
0.653	V60A (designed binder) MTLQELLREEALRRAEAEAFRYALELLAEKFPEQKEYLLDLAEEIESQIRSLSGVDVEDARKFLDKEWAWVKELLAEHPAELAEVEAARAARLAELRAEVEAKVAA
0.718	V55T (designed binder) MTLQELLREEALRRAEAEAFRYALELLAEKFPEQKEYLLDLAEEIESQIRSLSGTDVEDVRKFLDKEWAWVKELLAEHPAELAEVEAARAARLAELRAEVEAKVAA
0.539	I45L (designed binder) MTLQELLREEALRRAEAEAFRYALELLAEKFPEQKEYLLDLAEELESQIRSLSGVDVEDVRKFLDKEWAWVKELLAEHPAELAEVEAARAARLAELRAEVEAKVAA
6.43	L52H (designed binder) MTLQELLREEALRRAEAEAFRYALELLAEKFPEQKEYLLDLAEEIESQIRSHSGVDVEDVRKFLDKEWAWVKELLAEHPAELAEVEAARAARLAELRAEVEAKVAA
0.869	A23W (designed binder) MTLQELLREEALRRAEAEAFRYWLELLAEKFPEQKEYLLDLAEEIESQIRSLSGVDVEDVRKFLDKEWAWVKELLAEHPAELAEVEAARAARLAELRAEVEAKVAA
0.446	A23C (designed binder) MTLQELLREEALRRAEAEAFRYCLELLAEKFPEQKEYLLDLAEEIESQIRSLSGVDVEDVRKFLDKEWAWVKELLAEHPAELAEVEAARAARLAELRAEVEAKVAA
0.593	D40M (designed binder) MTLQELLREEALRRAEAEAFRYALELLAEKFPEQKEYLLMLAEEIESQIRSLSGVDVEDVRKFLDKEWAWVKELLAEHPAELAEVEAARAARLAELRAEVEAKVAA
3.3	E10H (designed binder) MTLQELLREHALRRAEAEAFRYALELLAEKFPEQKEYLLDLAEEIESQIRSLSGVDVEDVRKFLDKEWAWVKELLAEHPAELAEVEAARAARLAELRAEVEAKVAA
0.446	E73Q (designed binder) MTLQELLREEALRRAEAEAFRYALELLAEKFPEQKEYLLDLAEEIESQIRSLSGVDVEDVRKFLDKEWAWVKQLLAEHPAELAEVEAARAARLAELRAEVEAKVAA
